biological target: FGFR1 (UniProt P11362); assay: phosphorylation enrichment, bacterial display (enrichment ratio); higher = better substrate or ligand; peptides without Tyr show the background
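Further: 11-residue human phosphosite peptides and single-mutation variants displayed on the E. coli surface, counted by deep sequencing, each peptide's frequency after selection divided by its frequency in the unselected input library; frequency after pTyr selection over input frequency; kinase dosed for 20-30% of maximal phosphorylation in three min.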

Chain of FGFR1 (P11362 whole entry, looked up): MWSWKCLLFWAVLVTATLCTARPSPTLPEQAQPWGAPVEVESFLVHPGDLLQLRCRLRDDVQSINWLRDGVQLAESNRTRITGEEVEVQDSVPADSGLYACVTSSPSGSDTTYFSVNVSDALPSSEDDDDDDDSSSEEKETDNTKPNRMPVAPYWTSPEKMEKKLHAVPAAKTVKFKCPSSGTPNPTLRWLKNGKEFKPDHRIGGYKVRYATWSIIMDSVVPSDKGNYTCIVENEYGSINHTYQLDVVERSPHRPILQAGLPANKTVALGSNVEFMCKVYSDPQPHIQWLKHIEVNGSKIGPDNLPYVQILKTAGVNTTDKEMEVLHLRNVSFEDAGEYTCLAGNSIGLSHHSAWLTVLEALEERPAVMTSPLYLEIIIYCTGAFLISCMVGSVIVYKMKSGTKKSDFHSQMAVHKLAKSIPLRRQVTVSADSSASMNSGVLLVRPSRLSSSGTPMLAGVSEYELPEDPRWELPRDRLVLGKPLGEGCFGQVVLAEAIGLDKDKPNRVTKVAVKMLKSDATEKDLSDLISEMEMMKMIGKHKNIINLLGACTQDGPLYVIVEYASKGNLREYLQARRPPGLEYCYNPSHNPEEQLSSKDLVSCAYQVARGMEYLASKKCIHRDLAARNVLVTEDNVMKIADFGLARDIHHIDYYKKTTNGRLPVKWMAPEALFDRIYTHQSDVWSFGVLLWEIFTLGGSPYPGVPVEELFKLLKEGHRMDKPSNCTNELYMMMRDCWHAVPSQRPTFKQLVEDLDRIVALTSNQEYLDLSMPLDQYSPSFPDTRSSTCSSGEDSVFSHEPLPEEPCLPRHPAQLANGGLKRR

Q: With SFHSSYSEIKD [DCLRE1C_Y322] as the sequence, how does the phosphorylation enrichment read?
A: 0.554

Q: Which phosphorylation enrichment does the source give for AVPSLYASGRT [ACTA1_Y145_L142P] here?
A: 0.405

Q: MSNFACVKREV [SCN1A_Y1694_Y1694C] was tested. Which phosphorylation enrichment did it give?
A: 0.486

Q: EHTTLYSDNST [KANSL1_Y223_N225D] was tested. Which phosphorylation enrichment did it give?
A: 0.475

Q: Which phosphorylation enrichment does the source give for ESDFPYSSSFE [SRPK2_Y427_T426P_YF] here?
A: 0.619

Q: Which phosphorylation enrichment does the source give for NLDRFYQQVTK [SEC16A_Y1041] here?
A: 0.45

Q: Which phosphorylation enrichment does the source give for AIGFEYSEINI [SIGLEC12_Y588_YF] here?
A: 2.77

Q: Which phosphorylation enrichment does the source give for YVFSFYHAFSG [ACTN4_Y265_S262F] here?
A: 0.921

Q: For VKMLLYTEVTR [GDI1_Y93], which phosphorylation enrichment is on record?
A: 0.529

Q: For GHEEFYSTHPH [LRRK2_Y1402_R1398H], which phosphorylation enrichment is on record?
A: 0.76

Q: Which phosphorylation enrichment does the source give for SEPDLYYDPRG [PKP1_Y160_C161Y] here?
A: 10.8

Q: Which phosphorylation enrichment does the source give for IRGNMYYENSY [EGFR_Y112] here?
A: 0.58

Q: How did the phosphorylation enrichment turn out when YGGLRYGYGVL [KRTAP20-2_Y13] was run?
A: 0.559

Q: Which phosphorylation enrichment does the source give for RPQDGYRIVQH [PTPRT_Y1329] here?
A: 0.557

Q: How did the phosphorylation enrichment turn out when LFDPDYMKVIL [CYP4A22_Y104_YF] was run?
A: 1.5

Q: For CTTIHYHFMCN [TP53_Y234_N235H_YF], which phosphorylation enrichment is on record?
A: 0.599

Q: For KVDKEYEVRVR [GHR_Y226], which phosphorylation enrichment is on record?
A: 0.52

Q: With LYSNAYLNDLA [ALDH1A1_Y119] as the sequence, how does the phosphorylation enrichment read?
A: 0.484

Q: For LPKEQYLYTKE [AFG3L2_Y614], which phosphorylation enrichment is on record?
A: 0.789

Q: How did the phosphorylation enrichment turn out when FRGFSYDDIPD [TMEM230_Y112_YF] was run?
A: 0.474

Q: Which phosphorylation enrichment does the source give for HLTLVYGGIFL [FBP1_Y259_R255L] here?
A: 0.745

Q: LPPGEYVVVPS [CAPN1_Y494] was tested. Which phosphorylation enrichment did it give?
A: 2.83

Q: How did the phosphorylation enrichment turn out when FISLIYTNFEA [GSTP1_Y109_YF] was run?
A: 0.683

Q: With MSRDVYSTDCF [NTRK2_Y702_Y706C_YF] as the sequence, how does the phosphorylation enrichment read?
A: 0.64

Q: For DEIPLYLKGGV [COX7A2_Y44], which phosphorylation enrichment is on record?
A: 0.5

Q: With DISEPYKVYRI [IRF8_Y107] as the sequence, how does the phosphorylation enrichment read?
A: 0.481

Q: For KILTHYKRPHT [KMT2D_Y5349], which phosphorylation enrichment is on record?
A: 0.456

Q: RAIDMYLMGCF [GABRB2_Y308_K303R] was tested. Which phosphorylation enrichment did it give?
A: 0.777

biological target: EPHB1 (UniProt P54762); assay: as above
Sequence (P54762 whole entry, looked up): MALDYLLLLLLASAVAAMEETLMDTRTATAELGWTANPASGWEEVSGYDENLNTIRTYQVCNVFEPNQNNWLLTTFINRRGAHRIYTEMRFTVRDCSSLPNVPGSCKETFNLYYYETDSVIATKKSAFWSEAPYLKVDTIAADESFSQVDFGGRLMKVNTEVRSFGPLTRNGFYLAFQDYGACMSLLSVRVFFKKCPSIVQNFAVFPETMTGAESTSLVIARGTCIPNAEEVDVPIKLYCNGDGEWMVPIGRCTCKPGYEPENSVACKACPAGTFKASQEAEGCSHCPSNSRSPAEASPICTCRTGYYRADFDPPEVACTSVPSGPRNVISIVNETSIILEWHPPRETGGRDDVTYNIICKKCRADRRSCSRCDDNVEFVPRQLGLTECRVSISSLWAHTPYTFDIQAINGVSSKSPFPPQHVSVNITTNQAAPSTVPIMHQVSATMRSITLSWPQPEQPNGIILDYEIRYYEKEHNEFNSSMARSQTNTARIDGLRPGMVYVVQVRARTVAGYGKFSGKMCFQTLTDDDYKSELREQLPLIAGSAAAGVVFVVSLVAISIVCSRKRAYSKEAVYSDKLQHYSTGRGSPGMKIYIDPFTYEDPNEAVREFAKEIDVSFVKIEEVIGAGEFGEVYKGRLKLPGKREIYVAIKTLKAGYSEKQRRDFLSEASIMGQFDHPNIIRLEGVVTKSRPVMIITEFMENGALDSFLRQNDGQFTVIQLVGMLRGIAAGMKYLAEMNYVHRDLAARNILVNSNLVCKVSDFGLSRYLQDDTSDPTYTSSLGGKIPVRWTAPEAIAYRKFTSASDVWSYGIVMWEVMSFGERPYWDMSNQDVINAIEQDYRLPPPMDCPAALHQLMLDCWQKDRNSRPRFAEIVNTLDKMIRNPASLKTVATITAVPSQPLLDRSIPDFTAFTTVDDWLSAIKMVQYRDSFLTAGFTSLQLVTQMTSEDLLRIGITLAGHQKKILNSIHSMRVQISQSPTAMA

Q: For SFHSSYSEIKD [DCLRE1C_Y322], which phosphorylation enrichment is on record?
A: 0.435

Q: For AVPSLYASGRT [ACTA1_Y145_L142P], which phosphorylation enrichment is on record?
A: 0.452

Q: With MSNFACVKREV [SCN1A_Y1694_Y1694C] as the sequence, how does the phosphorylation enrichment read?
A: 0.49

Q: With EHTTLYSDNST [KANSL1_Y223_N225D] as the sequence, how does the phosphorylation enrichment read?
A: 0.45

Q: How did the phosphorylation enrichment turn out when ESDFPYSSSFE [SRPK2_Y427_T426P_YF] was run?
A: 0.437

Q: With NLDRFYQQVTK [SEC16A_Y1041] as the sequence, how does the phosphorylation enrichment read?
A: 0.516

Q: How did the phosphorylation enrichment turn out when AIGFEYSEINI [SIGLEC12_Y588_YF] was run?
A: 0.481

Q: How did the phosphorylation enrichment turn out when YVFSFYHAFSG [ACTN4_Y265_S262F] was run?
A: 1.15

Q: For VKMLLYTEVTR [GDI1_Y93], which phosphorylation enrichment is on record?
A: 3

Q: How did the phosphorylation enrichment turn out when GHEEFYSTHPH [LRRK2_Y1402_R1398H] was run?
A: 0.617

Q: With SEPDLYYDPRG [PKP1_Y160_C161Y] as the sequence, how does the phosphorylation enrichment read?
A: 14.3

Q: How did the phosphorylation enrichment turn out when IRGNMYYENSY [EGFR_Y112] was run?
A: 0.486

Q: With YGGLRYGYGVL [KRTAP20-2_Y13] as the sequence, how does the phosphorylation enrichment read?
A: 0.415

Q: Which phosphorylation enrichment does the source give for RPQDGYRIVQH [PTPRT_Y1329] here?
A: 0.406

Q: Which phosphorylation enrichment does the source give for LFDPDYMKVIL [CYP4A22_Y104_YF] here?
A: 1.42

Q: For CTTIHYHFMCN [TP53_Y234_N235H_YF], which phosphorylation enrichment is on record?
A: 0.549

Q: Which phosphorylation enrichment does the source give for KVDKEYEVRVR [GHR_Y226] here?
A: 0.459

Q: With LYSNAYLNDLA [ALDH1A1_Y119] as the sequence, how does the phosphorylation enrichment read?
A: 0.853

Q: LPKEQYLYTKE [AFG3L2_Y614] was tested. Which phosphorylation enrichment did it give?
A: 0.895

Q: For FRGFSYDDIPD [TMEM230_Y112_YF], which phosphorylation enrichment is on record?
A: 0.739

Q: How did the phosphorylation enrichment turn out when HLTLVYGGIFL [FBP1_Y259_R255L] was run?
A: 0.743

Q: LPPGEYVVVPS [CAPN1_Y494] was tested. Which phosphorylation enrichment did it give?
A: 5.23

Q: How did the phosphorylation enrichment turn out when FISLIYTNFEA [GSTP1_Y109_YF] was run?
A: 1.11

Q: With MSRDVYSTDCF [NTRK2_Y702_Y706C_YF] as the sequence, how does the phosphorylation enrichment read?
A: 0.754

Q: DEIPLYLKGGV [COX7A2_Y44] was tested. Which phosphorylation enrichment did it give?
A: 0.566

Q: With DISEPYKVYRI [IRF8_Y107] as the sequence, how does the phosphorylation enrichment read?
A: 0.537

Q: How did the phosphorylation enrichment turn out when KILTHYKRPHT [KMT2D_Y5349] was run?
A: 0.359

Q: With RAIDMYLMGCF [GABRB2_Y308_K303R] as the sequence, how does the phosphorylation enrichment read?
A: 0.848

biological target: MERTK (UniProt Q12866); assay: as above
Sequence (Q12866 whole entry, looked up): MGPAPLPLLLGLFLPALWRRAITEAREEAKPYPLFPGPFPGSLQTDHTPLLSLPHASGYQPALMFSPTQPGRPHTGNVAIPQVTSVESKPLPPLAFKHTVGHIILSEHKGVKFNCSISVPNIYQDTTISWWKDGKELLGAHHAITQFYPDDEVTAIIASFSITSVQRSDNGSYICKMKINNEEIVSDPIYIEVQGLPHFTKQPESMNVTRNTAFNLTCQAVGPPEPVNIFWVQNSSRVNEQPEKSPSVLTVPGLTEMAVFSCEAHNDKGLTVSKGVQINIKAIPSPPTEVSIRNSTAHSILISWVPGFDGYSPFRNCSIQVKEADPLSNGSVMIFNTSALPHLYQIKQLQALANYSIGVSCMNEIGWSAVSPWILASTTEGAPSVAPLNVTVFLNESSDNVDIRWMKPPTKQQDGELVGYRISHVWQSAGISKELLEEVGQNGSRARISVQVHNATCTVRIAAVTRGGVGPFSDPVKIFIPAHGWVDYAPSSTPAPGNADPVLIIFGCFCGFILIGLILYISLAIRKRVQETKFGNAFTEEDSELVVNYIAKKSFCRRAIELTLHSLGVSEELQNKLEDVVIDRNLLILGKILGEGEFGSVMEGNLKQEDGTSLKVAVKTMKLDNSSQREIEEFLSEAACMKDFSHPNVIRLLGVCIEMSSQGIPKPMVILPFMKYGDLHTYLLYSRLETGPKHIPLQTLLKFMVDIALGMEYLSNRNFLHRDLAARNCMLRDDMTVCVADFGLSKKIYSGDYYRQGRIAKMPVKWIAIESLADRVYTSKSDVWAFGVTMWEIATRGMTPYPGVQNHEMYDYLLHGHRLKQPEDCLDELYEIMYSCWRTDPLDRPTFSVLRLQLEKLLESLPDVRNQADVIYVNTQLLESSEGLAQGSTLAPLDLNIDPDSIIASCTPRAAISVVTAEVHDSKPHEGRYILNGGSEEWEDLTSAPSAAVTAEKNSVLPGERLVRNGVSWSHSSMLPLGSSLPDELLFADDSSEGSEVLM

Q: SFHSSYSEIKD [DCLRE1C_Y322] was tested. Which phosphorylation enrichment did it give?
A: 0.57

Q: AVPSLYASGRT [ACTA1_Y145_L142P] was tested. Which phosphorylation enrichment did it give?
A: 0.473

Q: With MSNFACVKREV [SCN1A_Y1694_Y1694C] as the sequence, how does the phosphorylation enrichment read?
A: 0.383

Q: For EHTTLYSDNST [KANSL1_Y223_N225D], which phosphorylation enrichment is on record?
A: 0.443

Q: ESDFPYSSSFE [SRPK2_Y427_T426P_YF] was tested. Which phosphorylation enrichment did it give?
A: 0.462

Q: How did the phosphorylation enrichment turn out when NLDRFYQQVTK [SEC16A_Y1041] was run?
A: 0.58

Q: For AIGFEYSEINI [SIGLEC12_Y588_YF], which phosphorylation enrichment is on record?
A: 0.574

Q: Which phosphorylation enrichment does the source give for YVFSFYHAFSG [ACTN4_Y265_S262F] here?
A: 3.14

Q: With VKMLLYTEVTR [GDI1_Y93] as the sequence, how does the phosphorylation enrichment read?
A: 2.58

Q: How did the phosphorylation enrichment turn out when GHEEFYSTHPH [LRRK2_Y1402_R1398H] was run?
A: 1.77

Q: With SEPDLYYDPRG [PKP1_Y160_C161Y] as the sequence, how does the phosphorylation enrichment read?
A: 7.05

Q: Which phosphorylation enrichment does the source give for IRGNMYYENSY [EGFR_Y112] here?
A: 1.06

Q: With YGGLRYGYGVL [KRTAP20-2_Y13] as the sequence, how does the phosphorylation enrichment read?
A: 0.497

Q: Which phosphorylation enrichment does the source give for RPQDGYRIVQH [PTPRT_Y1329] here?
A: 0.493

Q: LFDPDYMKVIL [CYP4A22_Y104_YF] was tested. Which phosphorylation enrichment did it give?
A: 0.502

Q: CTTIHYHFMCN [TP53_Y234_N235H_YF] was tested. Which phosphorylation enrichment did it give?
A: 0.441

Q: KVDKEYEVRVR [GHR_Y226] was tested. Which phosphorylation enrichment did it give?
A: 0.361

Q: LYSNAYLNDLA [ALDH1A1_Y119] was tested. Which phosphorylation enrichment did it give?
A: 5.82

Q: With LPKEQYLYTKE [AFG3L2_Y614] as the sequence, how does the phosphorylation enrichment read?
A: 0.792

Q: Which phosphorylation enrichment does the source give for FRGFSYDDIPD [TMEM230_Y112_YF] here?
A: 0.565

Q: How did the phosphorylation enrichment turn out when HLTLVYGGIFL [FBP1_Y259_R255L] was run?
A: 0.507

Q: With LPPGEYVVVPS [CAPN1_Y494] as the sequence, how does the phosphorylation enrichment read?
A: 0.927

Q: How did the phosphorylation enrichment turn out when FISLIYTNFEA [GSTP1_Y109_YF] was run?
A: 3.6

Q: For MSRDVYSTDCF [NTRK2_Y702_Y706C_YF], which phosphorylation enrichment is on record?
A: 3.02

Q: For DEIPLYLKGGV [COX7A2_Y44], which phosphorylation enrichment is on record?
A: 0.391

Q: How did the phosphorylation enrichment turn out when DISEPYKVYRI [IRF8_Y107] was run?
A: 0.487

Q: For KILTHYKRPHT [KMT2D_Y5349], which phosphorylation enrichment is on record?
A: 0.365

Q: For RAIDMYLMGCF [GABRB2_Y308_K303R], which phosphorylation enrichment is on record?
A: 0.601

biological target: Fyn (UniProt P06241); assay: as above
Sequence (P06241 whole entry, looked up): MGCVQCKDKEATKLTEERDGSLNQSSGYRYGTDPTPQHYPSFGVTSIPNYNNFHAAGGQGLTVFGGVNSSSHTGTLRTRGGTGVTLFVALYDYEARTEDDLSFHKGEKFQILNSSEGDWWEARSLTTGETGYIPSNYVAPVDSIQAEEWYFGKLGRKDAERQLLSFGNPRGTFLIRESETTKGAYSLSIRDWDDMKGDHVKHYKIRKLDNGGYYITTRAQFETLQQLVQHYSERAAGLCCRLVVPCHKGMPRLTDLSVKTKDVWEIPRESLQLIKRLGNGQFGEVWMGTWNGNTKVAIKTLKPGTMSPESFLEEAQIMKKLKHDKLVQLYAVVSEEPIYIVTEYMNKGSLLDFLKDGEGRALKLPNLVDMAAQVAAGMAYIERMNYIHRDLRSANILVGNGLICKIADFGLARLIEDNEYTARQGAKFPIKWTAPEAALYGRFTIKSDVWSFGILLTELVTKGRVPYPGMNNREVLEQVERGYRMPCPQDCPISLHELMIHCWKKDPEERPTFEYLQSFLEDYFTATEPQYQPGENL

Q: SFHSSYSEIKD [DCLRE1C_Y322] was tested. Which phosphorylation enrichment did it give?
A: 0.512

Q: For AVPSLYASGRT [ACTA1_Y145_L142P], which phosphorylation enrichment is on record?
A: 0.393

Q: MSNFACVKREV [SCN1A_Y1694_Y1694C] was tested. Which phosphorylation enrichment did it give?
A: 0.449

Q: For EHTTLYSDNST [KANSL1_Y223_N225D], which phosphorylation enrichment is on record?
A: 0.407

Q: With ESDFPYSSSFE [SRPK2_Y427_T426P_YF] as the sequence, how does the phosphorylation enrichment read?
A: 0.511

Q: For NLDRFYQQVTK [SEC16A_Y1041], which phosphorylation enrichment is on record?
A: 0.43

Q: With AIGFEYSEINI [SIGLEC12_Y588_YF] as the sequence, how does the phosphorylation enrichment read?
A: 0.642

Q: YVFSFYHAFSG [ACTN4_Y265_S262F] was tested. Which phosphorylation enrichment did it give?
A: 0.692

Q: VKMLLYTEVTR [GDI1_Y93] was tested. Which phosphorylation enrichment did it give?
A: 0.759

Q: Which phosphorylation enrichment does the source give for GHEEFYSTHPH [LRRK2_Y1402_R1398H] here?
A: 0.638

Q: With SEPDLYYDPRG [PKP1_Y160_C161Y] as the sequence, how does the phosphorylation enrichment read?
A: 5.41

Q: How did the phosphorylation enrichment turn out when IRGNMYYENSY [EGFR_Y112] was run?
A: 0.468

Q: With YGGLRYGYGVL [KRTAP20-2_Y13] as the sequence, how does the phosphorylation enrichment read?
A: 1.25

Q: How did the phosphorylation enrichment turn out when RPQDGYRIVQH [PTPRT_Y1329] was run?
A: 0.554

Q: LFDPDYMKVIL [CYP4A22_Y104_YF] was tested. Which phosphorylation enrichment did it give?
A: 0.675

Q: For CTTIHYHFMCN [TP53_Y234_N235H_YF], which phosphorylation enrichment is on record?
A: 0.542

Q: How did the phosphorylation enrichment turn out when KVDKEYEVRVR [GHR_Y226] was run?
A: 0.407

Q: How did the phosphorylation enrichment turn out when LYSNAYLNDLA [ALDH1A1_Y119] was run?
A: 1.19

Q: How did the phosphorylation enrichment turn out when LPKEQYLYTKE [AFG3L2_Y614] was run?
A: 0.634

Q: For FRGFSYDDIPD [TMEM230_Y112_YF], which phosphorylation enrichment is on record?
A: 0.438

Q: With HLTLVYGGIFL [FBP1_Y259_R255L] as the sequence, how does the phosphorylation enrichment read?
A: 2.72

Q: How did the phosphorylation enrichment turn out when LPPGEYVVVPS [CAPN1_Y494] was run?
A: 0.88

Q: With FISLIYTNFEA [GSTP1_Y109_YF] as the sequence, how does the phosphorylation enrichment read?
A: 4.29

Q: MSRDVYSTDCF [NTRK2_Y702_Y706C_YF] was tested. Which phosphorylation enrichment did it give?
A: 2.71

Q: Which phosphorylation enrichment does the source give for DEIPLYLKGGV [COX7A2_Y44] here?
A: 0.492

Q: DISEPYKVYRI [IRF8_Y107] was tested. Which phosphorylation enrichment did it give?
A: 0.445

Q: With KILTHYKRPHT [KMT2D_Y5349] as the sequence, how does the phosphorylation enrichment read?
A: 0.393

Q: How did the phosphorylation enrichment turn out when RAIDMYLMGCF [GABRB2_Y308_K303R] was run?
A: 0.907
